This is an account of results in paper PMC6736995, “Insights Into Enhanced Complement Activation by Structures of Properdin and Its Complex With the C-Terminal Domain of C3b” (Frontiers in Immunology, 2019).

One assay concerns the target C3b (Homo sapiens) (UniProt P01024). The conditions noted are these: cited from earlier work.
Assay [1] deals with T1, C3b, biotinylated at the free cysteine of the hydrolysed thioester (human, UniProt P01024 23-667; P01024 749-1663, biotin (EZ-Link Maleimide-PEG2-Biotin) on the free cysteine that is generated after hydrolysis of the reactive thioester).
T1 construct: complement C3 beta chain, human; C3b alpha' chain, human; Coupled to a streptavidin chip through the biotin; also called C3b coated chip; source: generated from C3 (purified from human plasma) with FB and FD, biotinylated, purified by SEC
T1 sequence (P01024 23-667, one chain of several): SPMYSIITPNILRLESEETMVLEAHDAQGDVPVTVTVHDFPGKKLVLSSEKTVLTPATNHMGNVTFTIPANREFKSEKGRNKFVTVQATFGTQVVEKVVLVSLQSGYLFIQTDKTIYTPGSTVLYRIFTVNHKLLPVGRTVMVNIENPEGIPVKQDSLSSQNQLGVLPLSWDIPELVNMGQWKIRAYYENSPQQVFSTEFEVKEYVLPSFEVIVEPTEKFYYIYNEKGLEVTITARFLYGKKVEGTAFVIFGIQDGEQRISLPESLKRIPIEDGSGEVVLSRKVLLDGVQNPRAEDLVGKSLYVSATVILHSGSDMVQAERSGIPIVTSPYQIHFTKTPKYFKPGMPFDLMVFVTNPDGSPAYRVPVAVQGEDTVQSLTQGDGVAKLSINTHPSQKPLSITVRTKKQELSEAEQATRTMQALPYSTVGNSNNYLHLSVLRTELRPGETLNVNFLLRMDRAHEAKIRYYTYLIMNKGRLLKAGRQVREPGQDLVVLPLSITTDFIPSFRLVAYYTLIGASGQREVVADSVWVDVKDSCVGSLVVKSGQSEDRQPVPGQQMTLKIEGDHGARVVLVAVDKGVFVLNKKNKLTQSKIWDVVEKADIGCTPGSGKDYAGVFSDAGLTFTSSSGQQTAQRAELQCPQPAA
The assay is described as follows: SPR; formation of C3bB and C3bBb on the chip: 100 nM FB^dgf‡ injected for 5 min over biotinylated C3b, then 100 nM FD for 5 min; buffer with 5 mM MgCl2; 25°C. The conditions noted are these: both partners purified. Background: SPR reads the build-up and loss of mass on a sensor chip optically.

The target in assay [2] is T1, C3b, biotinylated at the free cysteine …. Briefly: SPR; biotinylated C3b on a SensEye P-Strep chip; P^N12/456 injected 1.2 × 10^-3 to 10 μM; low ionic strength, 20 mM HEPES pH 7.4, 0.005% Tween-20, 50 mM NaCl; 25°C; equilibrium end-point fit. The conditions noted are these: both partners purified.
Assay [3] has the same target. The assay is described as follows: SPR; biotinylated C3b on a SensEye P-Strep chip (IBIS-MX96); P^N12/456 injected 4.9 × 10^-3 to 40 μM in 14 2-fold steps; 20 mM HEPES pH 7.4, 0.005% Tween-20, 150 mM NaCl; 25°C; equilibrium end-point fit. The conditions noted are these: both partners purified.
Another assay has as its target T2, C3 convertase C3bBb^dgf‡ (human, UniProt P01024 23-667; P01024 749-1663; P00751 260-764, S699A | D279G | N285D, biotin (EZ-Link Maleimide-PEG2-Biotin) on the free cysteine that is generated after hydrolysis of the reactive thioester).
T2 construct: complement C3 beta chain, human; C3b alpha' chain, human; In the convertase stability assay (functional rows) the same complex was formed in solution from C3b that was not biotinylated; source: formed on the SPR chip: FB^dgf‡ (100 nM, 5 min) then FD (100 nM, 5 min) over biotinylated C3b, 5 mM MgCl2; copies: + +
The assay is described as follows: SPR; C3bB^dgf‡ or C3bBb^dgf‡ generated on a C3b coated chip before each injection; P^N12/456 injected (2.4 × 10^-4 to 2 μM on C3bB, 1.2 × 10^-4 to 1 μM on C3bBb); 20 mM HEPES pH 7.4, 0.005% Tween-20, 150 mM NaCl, 5 mM MgCl2; 25°C; equilibrium end-point fit. The conditions noted are these: both partners purified.

Assay [4] deals with T3, C3 pro-convertase C3bB^dgf‡ generated on a C3b coated chip (human, UniProt P01024 23-667; P01024 749-1663; P00751 26-764, S699A | D279G | N285D, biotin (EZ-Link Maleimide-PEG2-Biotin) on the free cysteine that is generated after hydrolysis of the reactive thioester).
T3 construct: complement C3 beta chain, human; C3b alpha' chain, human; source: formed on the SPR chip: 100 nM FB^dgf‡ injected for 5 min over biotinylated C3b, 5 mM MgCl2; copies: + +
T3 sequence (P01024 23-667, stated change not applied, one chain of several): as the sequence (P01024 23-667, one chain of several) above
Described as above. The conditions noted are these: both partners purified.

The target of assay [5] is T4, P^N1′/456, biotinylated monomerized properdin (complex of P^N1′ with P^456) (human, UniProt P27918 28-134; P27918 256-469, biotinylated with EZ-Link Maleimide-PEG2-Biotin as described for C3b (site not stated)).
T4 construct: N-terminal Gly-Ser cloning scar from the BamHI site; properdin, human, P^N1′, res; 28-134; includes an additional Cys-Pro (res. 133-134) at the C-terminus of TSR1; C-terminal extension of three alanines from the NotI site; 256-469 (TSR4, TSR5, TSR6); The maleimide-biotin is surmised to sit on a free cysteine at the C-terminus of P^N1′ (Cys132/Cys133); source: HEK293-EBNA, co-expressed, purified …
Briefly: SPR; biotinylated P^N1′/456 on a SensEye P-Strep chip; C3/C3b-CTC injected 2.4 × 10^-2 to 200 μM (200 μM point left out as an outlier); 20 mM HEPES pH 7.4, 0.005% Tween-20, 150 mM NaCl; 25°C; equilibrium end-point fit. The conditions noted are these: both partners purified.

C3b (Homo sapiens), sequence (P01024 23-667): as the sequence (P01024 23-667, one chain of several) above
T2 sequence (P01024 23-667, stated change not applied, one chain of several): as the sequence (P01024 23-667, one chain of several) above

“Properdin single vertices (from UniProt P27918)”: in the assay with C3b (Homo sapiens), the equilibrium dissociation constant (Kd) (as a rule, the equilibrium constant for the complex coming apart) was 7.8 µM.

B1: catalytically inactive (S699A) double-gain-of-function (D279G, N285D) factor B mutant (enzyme, human, UniProt P00751 26-764, looked up)
chain: TPWSLARPQGSCSLEGVEIKGGSFRLLQEGQALEYVCPSGFYPYPVQTRTCRSTGSWSTLKTQDQKTVRKAECRAIHCPRPHDFENGEYWPRSPYYNVSDEISFHCYDGYTLRGSANRTCQVNGRWSGQTAICDNGAGYCSNPGIPIGTRKVGSQYRLEDSVTYHCSRGLTLRGSQRRTCQEGGSWSGTEPSCQDSFMYDTPQEVAEAFLSSLTETIEGVDAEDGHGPGEQQKRKIVLDPSGSMNIYLVLDGSGSIGASDFTGAKKCLVNLIEKVASYGVKPRYGLVTYATYPKIWVKVSEADSSNADWVTKQLNEINYEDHKLKSGTNTKKALQAVYSMMSWPDDVPPEGWNRTRHVIILMTDGLHNMGGDPITVIDEIRDLLYIGKDRKNPREDYLDVYVFGVGPLVNQVNINALASKKDNEQHVFKVKDMENLEDVFYQMIDESQSLSLCGMVWEHRKGTDYHKQPWQAKISVIRPSKGHESCMGAVVSEYFVLTAAHCFTVDDKEHSIKVSVGGEKRDLEIEVVLFHPNYNINGKKEAGIPEFYDYDVALIKLKNKLKYGQTIRPICLPCTEGTTRALRLPPTTTCQQQKEELLPAQDIKALFVSEEEKKLTRKEVYIKNGDKKGSCERDAQYAPGYDKVKDISEVVTPRFLCTGGVSPYADPNTCRGDAGGPLIVHKRSRFIQVGVISWGVVDVCKNQKRQKQVPAHARDFHINLFQVLPWLKEKLQDEDLGFL
notes: complement factor B, human; also called FB^dgf‡
For the molecule B1, in assay [1], the binding result is “binds”.

B2: P^N12/456, monomerized properdin (non-covalent complex of P^N12 with P^456) (complex, human)
chain 1: GSDPVLCFTQYEESSGKCKGLLGGGVSVEDCCLNTAFAYQKRSGGLCQPCRSPRWSLWSTWAPCSVTCSEGSQLRYRRCVGWNGQCSGKVAPGTLEWQLQACEDQQCCPEMGGWSGWGPWEPCSVTCSKGTRTRRRACNHPAPKCGGHCPGQAQESEACDTQQVCP
chain 2: GSVAGGWGPWGPVSPCPVTCGLGQTMEQRTCNHPVPQHGGPFCAGDATRTHICNTAVPCPVDGEWDSWGEWSPCIRRNMKSISCQEIPGQQSRGRTCRGRKFDGHRCAGQQQDIRHCYSIQHCPLKGSWSEWSTWGLCMPPCGPNPTRARQRLCTPLLPKYPPTVSMVEGQGEKNVTFWGRPLPRCEELQGQKLVVEEKRPCLHVPACKDPEEEELAAA
modifications: C-mannosylated Trp-ladder tryptophans; O-fucosylation of Thr92 and Thr151 (observed in the structure) | C-mannosylated Trp-ladder tryptophans; O-fucosylation of Thr272; N-glycosylation of Asn428
notes: N-terminal Gly-Ser cloning scar from the BamHI site; properdin, human, P^N12, res; 28-191 (N-terminal STB domain, TSR1, TSR2); stop codon before the NotI site, no alanine extension; 256-469 (TSR4, TSR5, TSR6); C-terminal extension of three alanines from the NotI site; TSR3 (res. 192-255) is absent; source: HEK293-EBNA, co-expressed (1:1 DNA ratio), purified from supernatant (Ni-Sepharose Excel, …)
With B2, the equilibrium dissociation constant (Kd) in assay [2] was 0.69 ± 0.04 µM; in assay [3], 6.8 ± 0.2 µM; with C3 convertase C3bBb^dgf‡, 0.034 ± 0.001 µM; in assay [4], 0.098 ± 0.002 µM.

B3: C3/C3b-CTC domain (C-terminal C345c domain of C3/C3b) (domain or fragment, human)
chain: GSNCFIQKSDDKVTLEERLDKACEPGVDYVYKTRLVKVQLSNDFDEYIMAIEQTIKSGSDEVQVGQQRTFISPIKCREALKLEEKKHYLMWGLSSDFWGEKPNLSYIIGKDTWVEHWPEEDECQDEENQKQCQDLGAFTESMVVFGCPN
notes: N-terminal Gly-Ser cloning scar from the BamHI site; complement C3, human, CTC (C345c) domain, res; 1517-1663; stop codon before the NotI site, no alanine extension; also called C3b/C3 CTC domain
Take B3: the Kd in assay [5] stood at 18.6 ± 1.6 µM.
